Data taken from patent US20020086844A1 (Harvard, published 2002).

B1: hTid-1L (other)
chain: VSLTGTKHNPFICTASFHTSAPLAKEDYYQILGVPRNASQKEIKKAYYQLAKKYHPDTNKDDPKAKEKFSQLAEAYEVLSDEVKRKQYDAYGSAGFDPGASGSQHSYWKGGPTVDPEELFRKIFGEFSSSSFGDFQTVFDQPQEYFMELTFNQAAKGVNKEFTVNIMDTCERCNGKGNEPGTKVQHCHYCGGSGMETINTGPFVMRSTCRRCGGRGSIIISPCVVCRGAGQAKQKKRVMIPVPAGVEDGQTVRMPVGKREIFITFRVQKSPVFRRDGADIHSDLFISIAQALLGGTARAQGLYETINVTIPPGTQTDQKIRMGGKGIPRINSYGYGDHYIHIKIRVPKRLTSRQQSLILSYAEDETDVEGTVNGVTLTSSGGSTMDSSAGSKARREAGEDEEGFLSKLKKMFTS
notes: Endogenous protein from human cell lysates; also called long form of human Tid1; 43 kDa TID1 splice variant
B2: hTid-1S (other)
chain: VSLTGTKHNPFICTASFHTSAPLAKEDYYQILGVPRNASQKEIKKAYYQLAKKYHPDTNKDDPKAKEKFSQLAEAYEVLSDEVKRKQYDAYGSAGFDPGASGSQHSYWKGGPTVDPEELFRKIFGEFSSSSFGDFQTVFDQPQEYFMELTFNQAAKGVNKEFTVNIMDTCERCNGKGNEPGTKVQHCHYCGGSGMETINTGPFVMRSTCRRCGGRGSIIISPCVVCRGAGQAKQKKRVMIPVPAGVEDGQTVRMPVGKREIFITFRVQKSPVFRRDGADIHSDLFISIAQALLGGTARAQGLYETINVTIPPGTQTDQKIRMGGKGIPRINSYGYGDHYIHIKIRVPKRLTSRQQSLILSYAEDETDVEGTVNGVTLTSSGKRSTGN
notes: Endogenous protein from human cell lysates; also called short form of human Tid1; 40 kDa TID1 splice variant

Target: T1, constitutively expressed nonmitochondrial Hsp70 homolog Hsc70 (human, UniProt P11142 2-646)
T1 construct: Endogenous; used as the control in the co-immunoprecipitation
Assay: co-immunoprecipitation with hTid-1-specific mAbs, immunoblot for Hsc70
Method: FIG. 2C. Endogenous hTid-1L and hTid-1S coimmunoprecipitate with mtHsp70. Immunoprecipitation experiments were performed from U20S cells by using mAbs specific for either hTid-1, mtHsp70, or Hsc70. Immune complexes were analyzed by SDS/PAGE and Western blot with hTid-1-, mtHsp70-, or Hsc70-specific mAbs.
Because hTid-1 proteins have extremely well conserved J domains, we suspected that they may be interacting with the mitochondrial Hsp70 homolog, mtHsp70 (GRP75), which is also localized to the mitochondrial matrix. We performed coimmunoprecipitation-immunoblot experiments by using mAbs specific for hTid-1, mtHsp70, or the constitutively expressed nonmitochondrial Hsp70 homolog Hsc70 as a control. hTid-1-specific mAbs immunoprecipitate endogenous hTid-1L and hTid-1S in complex with mtHsp70 from human U2OS cells. (FIG. 2C).

T1 sequence (P11142 2-646 limits assumed): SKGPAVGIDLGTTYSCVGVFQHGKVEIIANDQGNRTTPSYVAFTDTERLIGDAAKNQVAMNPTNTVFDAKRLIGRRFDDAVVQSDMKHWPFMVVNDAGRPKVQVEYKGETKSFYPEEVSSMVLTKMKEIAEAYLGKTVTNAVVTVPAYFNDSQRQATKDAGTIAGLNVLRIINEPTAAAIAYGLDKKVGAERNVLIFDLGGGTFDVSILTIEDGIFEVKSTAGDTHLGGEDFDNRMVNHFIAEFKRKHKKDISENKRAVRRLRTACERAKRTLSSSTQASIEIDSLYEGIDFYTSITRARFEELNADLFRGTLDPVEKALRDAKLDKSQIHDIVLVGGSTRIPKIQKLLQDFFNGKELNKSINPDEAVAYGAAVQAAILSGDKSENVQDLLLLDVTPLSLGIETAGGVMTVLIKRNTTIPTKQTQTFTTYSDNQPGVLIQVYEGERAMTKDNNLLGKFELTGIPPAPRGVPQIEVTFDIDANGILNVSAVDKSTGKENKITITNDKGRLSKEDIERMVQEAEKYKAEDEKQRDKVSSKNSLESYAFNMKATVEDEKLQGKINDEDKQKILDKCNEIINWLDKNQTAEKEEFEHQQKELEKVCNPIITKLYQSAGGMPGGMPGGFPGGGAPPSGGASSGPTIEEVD

Binder | binding result
B1 | no binding
B2 | no binding
